Results as given in patent publication US20240043515A1 (Chugai, published 2024).

T1: human FcγRIIb extracellular domain (human, UniProt P31994 43-217)
T1 construct: extracellular domain; also called hFcγR IIb
T1 sequence (looked up): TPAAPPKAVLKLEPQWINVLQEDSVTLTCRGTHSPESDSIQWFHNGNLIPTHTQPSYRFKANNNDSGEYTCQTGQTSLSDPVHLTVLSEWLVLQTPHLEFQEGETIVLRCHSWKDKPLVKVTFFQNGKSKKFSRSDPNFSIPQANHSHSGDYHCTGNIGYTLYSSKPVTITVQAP

T2: human FcγRIIa H extracellular domain (human, UniProt P12318 34-217)
T2 construct: extracellular domain; also called hFcγR IIa H; FcγRIIa allotype H131
T2 sequence (looked up): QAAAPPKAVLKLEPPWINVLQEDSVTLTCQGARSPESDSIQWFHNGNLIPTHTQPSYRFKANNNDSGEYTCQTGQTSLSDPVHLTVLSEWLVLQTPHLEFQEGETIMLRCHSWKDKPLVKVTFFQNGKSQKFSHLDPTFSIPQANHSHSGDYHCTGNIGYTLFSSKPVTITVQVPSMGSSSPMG

T3: human FcγRIIa R extracellular domain (human, UniProt P12318 34-217)
T3 construct: extracellular domain; also called hFcγR IIa R; FcγRIIa allotype R131
T3 sequence (looked up): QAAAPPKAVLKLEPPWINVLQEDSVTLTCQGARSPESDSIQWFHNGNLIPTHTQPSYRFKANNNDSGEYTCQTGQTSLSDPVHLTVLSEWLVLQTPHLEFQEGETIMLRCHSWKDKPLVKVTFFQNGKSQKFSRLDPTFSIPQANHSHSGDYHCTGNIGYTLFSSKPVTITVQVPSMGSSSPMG

T4: hFcγRIIaH on Jurkat effector cells (human, UniProt P12318 34-317)
T4 sequence (looked up): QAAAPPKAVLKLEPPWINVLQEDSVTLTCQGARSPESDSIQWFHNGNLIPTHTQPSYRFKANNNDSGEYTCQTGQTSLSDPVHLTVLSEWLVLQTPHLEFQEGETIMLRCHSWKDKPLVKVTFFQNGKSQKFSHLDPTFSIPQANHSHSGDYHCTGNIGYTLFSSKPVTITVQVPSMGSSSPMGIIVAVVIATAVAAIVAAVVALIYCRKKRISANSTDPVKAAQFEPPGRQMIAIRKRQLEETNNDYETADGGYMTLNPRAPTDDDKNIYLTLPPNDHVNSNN

B1: EGL-G1d (H240-G1d/L73-k0) (antibody, human IgG1, kappa)
heavy: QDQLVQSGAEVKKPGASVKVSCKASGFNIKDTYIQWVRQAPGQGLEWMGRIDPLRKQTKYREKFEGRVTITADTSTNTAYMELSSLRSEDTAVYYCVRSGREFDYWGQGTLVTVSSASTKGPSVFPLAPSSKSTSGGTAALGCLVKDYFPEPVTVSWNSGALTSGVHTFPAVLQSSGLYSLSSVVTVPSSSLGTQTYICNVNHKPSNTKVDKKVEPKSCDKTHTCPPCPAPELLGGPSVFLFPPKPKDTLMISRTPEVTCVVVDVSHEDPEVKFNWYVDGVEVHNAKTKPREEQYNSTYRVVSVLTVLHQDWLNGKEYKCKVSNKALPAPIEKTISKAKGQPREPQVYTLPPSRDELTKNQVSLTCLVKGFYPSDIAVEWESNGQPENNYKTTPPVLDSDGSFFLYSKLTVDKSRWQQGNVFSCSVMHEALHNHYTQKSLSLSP
light: DIQMTQSPSSLSASVGDRVTITCRASQDIHKYIAWYQQKPGQAPRLLIQYTSTLQPGVPSRFSGSGSGTDYTFTISSLQPEDIATYYCLQYEQLRTFGGGTKVEIKRTVAAPSVFIFPPSDEQLKSGTASVVCLLNNFYPREAKVQWKVDNALQSGNSQESVTEQDSKDSTYSLSSTLTLSKADYEKHKVYACEVTHQGLSSPVTKSFNRGEC
notes: Anti-human Epiregulin antibody with a human IgG1 constant region lacking C-terminal Gly-Lys (G1d); also called Gld; anti-hEREG control antibody
B2: EGL-GASDALIE (H240-GASDALIE/L73-k0) (antibody, human IgG1, kappa)
heavy: QDQLVQSGAEVKKPGASVKVSCKASGFNIKDTYIQWVRQAPGQGLEWMGRIDPLRKQTKYREKFEGRVTITADTSTNTAYMELSSLRSEDTAVYYCVRSGREFDYWGQGTLVTVSSASTKGPSVFPLAPSSKSTSGGTAALGCLVKDYFPEPVTVSWNSGALTSGVHTFPAVLQSSGLYSLSSVVTVPSSSLGTQTYICNVNHKPSNTKVDKKVEPKSCDKTHTCPPCPAPELLAGPDVFLFPPKPKDTLMISRTPEVTCVVVDVSHEDPEVKFNWYVDGVEVHNAKTKPREEQYNSTYRVVSVLTVLHQDWLNGKEYKCKVSNKALPLPEEKTISKAKGQPREPQVYTLPPSRDELTKNQVSLTCLVKGFYPSDIAVEWESNGQPENNYKTTPPVLDSDGSFFLYSKLTVDKSRWQQGNVFSCSVMHEALHNHYTQKSLSLSP
light: DIQMTQSPSSLSASVGDRVTITCRASQDIHKYIAWYQQKPGQAPRLLIQYTSTLQPGVPSRFSGSGSGTDYTFTISSLQPEDIATYYCLQYEQLRTFGGGTKVEIKRTVAAPSVFIFPPSDEQLKSGTASVVCLLNNFYPREAKVQWKVDNALQSGNSQESVTEQDSKDSTYSLSSTLTLSKADYEKHKVYACEVTHQGLSSPVTKSFNRGEC

Assays:
[1] = molecular target: T1, human FcγRIIb extracellular domain; test: SPR; KD of G1d divided by KD of this antibody
Protocol: (§1) The extracellular domains of FcγRs were produced by the method described in WO2014104165. The interaction between the produced antibodies and human FcγRs was analyzed using Biacore 8K+ by the method below. For the running buffer, 50 mM Na-Phosphate, 150 mM NaCl, and 0.05% Tween20 (pH 7.4) was used, and measurement was performed at 25° C. The sensor chip used was a Series S SA chip (GE Healthcare) onto which CaptureSelect Human Fab-kappa Kinetics Biotin Conjugate (Thermo Fisher Scientific) was immobilized. An antibody of interest was captured onto this chip, and each FcγR diluted with the running buffer was allowed to interact with it. The chip was regenerated using 10 mM Glycine-HCl (pH 1.5), and repeatedly used to capture antibodies and perform measurement. The dissociation constants KD (mol/L) of each antibody for FcγRs were calculated using Biacore Insight Evaluation Software, with a steady state affinity model for the dissociation constant for FcγRIIb and a 1:1 Langmuir binding model for the dissociation constants for the other FcγRs (Table 2).

[2] = molecular target: T2, human FcγRIIa H extracellular domain; test: SPR; KD of G1d divided by KD of this antibody
Protocol: as §1

[3] = molecular target: T5, human FcγRIa extracellular domain (human, UniProt P12314 16-292); test: SPR; KD of G1d divided by KD of this antibody
T5 construct: extracellular domain; also called hFcγR Ia
T5 sequence (P12314 16-292): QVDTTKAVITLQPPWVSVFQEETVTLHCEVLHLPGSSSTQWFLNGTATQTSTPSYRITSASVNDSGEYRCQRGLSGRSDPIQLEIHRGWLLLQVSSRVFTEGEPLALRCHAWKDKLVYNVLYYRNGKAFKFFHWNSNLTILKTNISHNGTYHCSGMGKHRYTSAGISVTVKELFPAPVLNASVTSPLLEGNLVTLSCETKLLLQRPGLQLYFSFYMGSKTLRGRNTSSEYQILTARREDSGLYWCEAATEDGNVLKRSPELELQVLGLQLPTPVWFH
Protocol: as §1

[4] = molecular target: T6, human FcγRIIIa F extracellular domain (human, UniProt P08637 17-208); test: SPR; KD of G1d divided by KD of this antibody
T6 construct: extracellular domain; also called hFcγR IIIa F; FcγRIIIa allotype F158
T6 sequence (P08637 17-208): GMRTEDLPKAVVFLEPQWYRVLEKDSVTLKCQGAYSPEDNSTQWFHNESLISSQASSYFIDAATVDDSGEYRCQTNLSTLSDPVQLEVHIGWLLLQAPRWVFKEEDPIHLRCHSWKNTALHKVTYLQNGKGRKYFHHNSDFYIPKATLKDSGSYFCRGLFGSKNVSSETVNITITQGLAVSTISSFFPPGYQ
Protocol: as §1

[5] = molecular target: T3, human FcγRIIa R extracellular domain; test: SPR; KD of G1d divided by KD of this antibody
Protocol: as §1

[6] = molecular target: T2, human FcγRIIa H extracellular domain; test: SPR; KD for hFcγRIIb divided by KD for this FcγR
Protocol: as §1

[7] = molecular target: T6, human FcγRIIIa F extracellular domain; test: SPR; KD for hFcγRIIb divided by KD for this FcγR
Protocol: as §1

[8] = molecular target: T3, human FcγRIIa R extracellular domain; test: SPR; KD for hFcγRIIb divided by KD for this FcγR
Protocol: as §1

[9] = molecular target: hFcγRIIIaV on Jurkat effector cells (human, UniProt P08637 17-254); test: cell-based or functional assay
Sequence of hFcγRIIIaV on Jurkat effector cells (P08637 17-254, form in doubt): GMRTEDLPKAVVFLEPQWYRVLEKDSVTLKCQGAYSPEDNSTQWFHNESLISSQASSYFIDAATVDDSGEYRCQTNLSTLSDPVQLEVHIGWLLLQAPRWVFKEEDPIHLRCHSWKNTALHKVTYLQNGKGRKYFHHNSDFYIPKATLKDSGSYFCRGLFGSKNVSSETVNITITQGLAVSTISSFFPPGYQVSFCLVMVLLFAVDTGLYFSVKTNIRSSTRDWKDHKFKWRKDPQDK

[10] = molecular target: T4, hFcγRIIaH on Jurkat effector cells; test: cell-based or functional assay

Binder	Relative value to KD between G1d and hFcgRs [1]	Relative value to KD between G1d and hFcgRs [2]	Relative value to KD between G1d and hFcgRs [3]	Relative value to KD between G1d and hFcgRs [4]	Relative value to KD between G1d and hFcgRs [5]	A/I ratio (KD for FcγRIIb divided by KD for each FcγR) [6]	A/I ratio (KD for FcγRIIb divided by KD for each FcγR) [7]	A/I ratio (KD for FcγRIIb divided by KD for each FcγR) [8]	EC50 of reporter gene induction (ADCC Reporter Bioassay, Hepa1-6/hEREG target cells) [9]	EC50 of reporter gene induction (ADCP Reporter Bioassay, Hepa1-6/hEREG target cells) [10]
B1	1 times	1 times	1 times	1 times	1 times	8.9 ratio	3.4 ratio	6.1 ratio	0.0463 µg/mL	
B2	3.8 times	6.9 times	21.3 times	99.1 times	10.3 times	16.5 ratio	89.3 ratio	16.5 ratio	0.00208 µg/mL	0.0324 µg/mL
